From patent KR20230010676A (dated 2023)
Substitutions are numbered along the chain they refer to.

B1: S2E12 (antibody, V domains shown)
VH: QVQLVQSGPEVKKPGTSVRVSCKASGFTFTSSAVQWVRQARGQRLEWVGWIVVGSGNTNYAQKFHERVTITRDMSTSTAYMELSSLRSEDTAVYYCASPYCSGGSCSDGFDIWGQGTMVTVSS
VL: DIVLTQTPGTLSLSPGERATLSCRASQSVSSSYLAWYQQKPGQAPRLLIYGASSRATGIPDRFSGSGSGTDFTLTISRLEPEDFAVYYCQQYVGLTGWTFGQGTKVEIK
notes: also called S2E12 WT; S2E12 wt
B2: 409_11_4_v2 (antibody, V domains shown)
VH: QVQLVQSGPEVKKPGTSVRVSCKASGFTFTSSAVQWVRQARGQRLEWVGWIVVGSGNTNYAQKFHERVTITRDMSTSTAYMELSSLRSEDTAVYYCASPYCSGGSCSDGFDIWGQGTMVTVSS
VL: B1 VL with L47A
notes: also called S2E12-v2
B3: 409_11_4_v4 (antibody, V domains shown)
VH: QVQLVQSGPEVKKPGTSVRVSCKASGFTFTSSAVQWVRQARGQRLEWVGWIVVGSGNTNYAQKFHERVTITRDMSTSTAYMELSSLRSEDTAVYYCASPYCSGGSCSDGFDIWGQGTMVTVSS
VL: B1 VL with W98Y
B4: 409_11_4_v6 (antibody, V domains shown)
VH: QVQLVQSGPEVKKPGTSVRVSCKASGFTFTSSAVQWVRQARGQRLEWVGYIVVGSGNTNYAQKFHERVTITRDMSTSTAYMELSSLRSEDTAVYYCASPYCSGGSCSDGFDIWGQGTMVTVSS
VL: B1 VL
B5: 409_11_4_v12 (antibody, V domains shown)
VH: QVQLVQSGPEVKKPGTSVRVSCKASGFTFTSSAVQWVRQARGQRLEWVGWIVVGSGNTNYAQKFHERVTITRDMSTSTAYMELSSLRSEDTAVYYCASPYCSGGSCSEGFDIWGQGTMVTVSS
VL: B1 VL
B6: 409_11_4_v13 (antibody, V domains shown)
VH: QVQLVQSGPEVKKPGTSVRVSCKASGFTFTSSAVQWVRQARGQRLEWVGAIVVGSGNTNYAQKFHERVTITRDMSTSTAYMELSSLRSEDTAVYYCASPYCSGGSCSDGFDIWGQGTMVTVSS
VL: B1 VL
B7: 409_11_4_v3 (antibody, V domains shown)
VH: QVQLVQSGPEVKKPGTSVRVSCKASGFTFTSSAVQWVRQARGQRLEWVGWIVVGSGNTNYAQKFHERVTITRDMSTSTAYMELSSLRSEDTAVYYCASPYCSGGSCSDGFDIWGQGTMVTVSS
VL: B1 VL with W98F
B8: 409_11_4_v5 (antibody, V domains shown)
VH: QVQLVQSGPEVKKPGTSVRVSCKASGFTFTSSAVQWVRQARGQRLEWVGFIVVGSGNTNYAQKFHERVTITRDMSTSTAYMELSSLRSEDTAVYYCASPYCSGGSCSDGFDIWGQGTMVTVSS
VL: B1 VL
B9: 409_11_4_v7 (antibody, V domains shown)
VH: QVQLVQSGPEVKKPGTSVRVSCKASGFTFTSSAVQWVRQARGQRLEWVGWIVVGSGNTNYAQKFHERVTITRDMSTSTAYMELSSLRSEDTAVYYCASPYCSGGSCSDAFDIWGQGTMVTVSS
VL: B1 VL
B10: S2X47 (antibody, V domains shown)
VH: QVQLQESGPGLVKPSQTLSLTCTVSGGSISSRSYYWSWIRQPAGKGLEWIGRIYTSGNTNYNPSLRSRVTISVDTSKNQFSLKLGSVTAADTAVYYCARERIIGTAHVGGWFDPWGQGTLVTVSS
VL: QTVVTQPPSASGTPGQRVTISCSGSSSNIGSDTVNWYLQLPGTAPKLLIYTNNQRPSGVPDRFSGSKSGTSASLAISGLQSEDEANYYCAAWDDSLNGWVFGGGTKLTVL
notes: also called S2X47-11
B11: S2X35 (antibody, V domains shown)
VH: QVQLVQSGAEVKKPGASVKVSCKASGYTFTNYGISWVRQAPGQGLEWMGWISAYKGNTNYAQKLQGRVTMTTDTSTSTAYMELRSLRSDDTAVYYCARPDYQVLGYDFWIGYYGMDVWGQGTTVIVSS
VL: QSVLTQPPSVSGAPGQRVTISCTGSSSNIGAGYDVHWYQQLPGTAPKLLIYGNTNRPSGVPDRFSGSKSGTSASLAITGLQAEDEADYYCQSYDSSLSGSEVVFGGGTKLTVL
notes: also called S2X35-11
B12: S2X30 (antibody, V domains shown)
VH: EVQLVQSGAEVKKPGSSVKVSCKASGGTFGSYTISWVRQAPGQGLEWMGRIIPILSIPNYAQKFQGRVTFTADKSTSTAYMELSSLRSEDTAVYYCARGGGGTHAVPHYYFDSWGQGTLVTVSS
VL: EIVMMQSPATLSVSPGERATLSCRASQSVSSNLAWYQHKPGQAPRLLIYGASTRATGIPARFSGSGSGTEFTLTISSMQSEDFAVYYCQQYNNWPFTFGGGTKVEIK
notes: also called S2X30-11
B13: S2X16 (antibody, V domains shown)
VH: EVQLVQSGAEVKKPGASVKVSCKASGYIFTDHYMHWVRQAPGQGLEWMGWINPNSGGTNYAQKFQGRVTMTRDTSINTAYMELSRLRSDDTAVHYCARDRSRFRFFSPDFDYWGQGTLVTVSS
VL: not shown
notes: also called S2X16-11

Target: T1, SARS-CoV-2 RBD (정제된, SPR) (SARS-CoV-2 (Wuhan-Hu-1), UniProt P0DTC2 331-550)
Assay: not given

Binder | Kd
B1 | 2.28 nM
B2 | 0.788 nM
B3 | 25.9 nM
B4 | 20.4 nM
B5 | 45.3 nM
B6 | 51.4 nM

Target: T2, SARS-CoV-2 RBD (자체 생산, BetaCoV/Wuhan-Hu-1/2019 스파이크의 잔기 331 내지 550, 수탁 번호 MN908947) (SARS-CoV-2 (BetaCoV/Wuhan-Hu-1/2019), UniProt P0DTC2 331-550)
T2 construct: range 331-550; also called SARS-CoV-2 스파이크 단백질 RBD
Assay: ELISA, RBD coated on plate, serial dilutions of recombinant mAb

Binder | EC50
B1 | 0.0434 µg/mL

Target: T1, SARS-CoV-2 RBD (정제된, SPR)
Assay: SPR, Biacore T200, single-cycle kinetics, antibody captured, RBD injected

Binder | Kd | koff | kon
B1 | 1.18 nM | 0.00233 s⁻¹ | 1.98e+06 M⁻¹ s⁻¹
B7 | 13 nM | 0.0153 s⁻¹ | 1.18e+06 M⁻¹ s⁻¹
B8 | 13.3 nM | 0.0358 s⁻¹ | 2.68e+06 M⁻¹ s⁻¹
B9 | 4.9 nM | 0.00913 s⁻¹ | 1.86e+06 M⁻¹ s⁻¹

Target: T1, SARS-CoV-2 RBD (정제된, SPR)
Assay: SPR, Biacore T200; ratio against S2E12 WT

Binder | KD_WT/KD
B1 | 1
B2 | 2.89
B3 | 0.09
B4 | 0.11
B5 | 0.05
B6 | 0.04

Target: T2, SARS-CoV-2 RBD (자체 생산, …)
Assay: ELISA, RBD coated on plate, serial dilutions of recombinant mAb
Remark: another data set of the same source

Binder | EC50
B10 | 0.092 µg/mL
B11 | 0.0483 µg/mL

Target: T3, SARS-CoV RBD (Sino Biological) (SARS-CoV (SARS-CoV-1), UniProt P59594 306-527)
T3 construct: domain: RBD; also called SARS-CoV-1 RBD; SARS-CoV-1 스파이크 단백질 RBD
Assay: as above

Binder | EC50
B11 | 0.0846 µg/mL

Target: T1, SARS-CoV-2 RBD (정제된, SPR)
Assay: not given
Remark: another data set of the same source

Binder | Kd | koff | kon
B1 | 1.31 nM | 0.00317 s⁻¹ | 2.42e+06 M⁻¹ s⁻¹

Target: T1, SARS-CoV-2 RBD (정제된, SPR)
Assay: SPR, Biacore T200; ratio against S2E12 WT
Remark: another data set of the same source

Binder | KD/KD_WT
B7 | 0.1
B8 | 0.098
B9 | 0.267

Target: SARS-CoV-2 스파이크 단백질 (SARS-CoV-2, UniProt P0DTC2 14-1273)
Assay: cell-based or functional assay

Binder | IC50 (neutralisation) | IC80 (neutralisation) | IC90 (neutralisation)
B10 | 0.003 µg/mL | 0.012 µg/mL | 0.025 µg/mL
B12 | 0.015 µg/mL | 0.031 µg/mL | 0.046 µg/mL
B13 | 0.006 µg/mL | 0.022 µg/mL | 0.046 µg/mL
B11 | 0.092 µg/mL | 0.32 µg/mL | 0.661 µg/mL

Target: T3, SARS-CoV RBD (Sino Biological)
Assay: ELISA, RBD coated on plate

Binder | binding result
B10 | no binding
B12 | no binding
B13 | no binding
